The text below walks through data of paper PMC4350430.

The target of this experiment is His6-ΔIBBMOS6 (Arabidopsis thaliana) (UniProt O04294). In words: ITC; MicroCal 205, 25°C, 20 mM HEPES, 150 mM NaCl, pH 7.5; His6–ΔIBB–MOS6 in the cell at 43–54 μM, titrated with His6-tagged cargo at 320–940 μM. For orientation: Isothermal titration calorimetry measures the heat released or taken up as one component is titrated into another.
Chain of UniProt O04294 (O04294 whole entry, stated change not applied): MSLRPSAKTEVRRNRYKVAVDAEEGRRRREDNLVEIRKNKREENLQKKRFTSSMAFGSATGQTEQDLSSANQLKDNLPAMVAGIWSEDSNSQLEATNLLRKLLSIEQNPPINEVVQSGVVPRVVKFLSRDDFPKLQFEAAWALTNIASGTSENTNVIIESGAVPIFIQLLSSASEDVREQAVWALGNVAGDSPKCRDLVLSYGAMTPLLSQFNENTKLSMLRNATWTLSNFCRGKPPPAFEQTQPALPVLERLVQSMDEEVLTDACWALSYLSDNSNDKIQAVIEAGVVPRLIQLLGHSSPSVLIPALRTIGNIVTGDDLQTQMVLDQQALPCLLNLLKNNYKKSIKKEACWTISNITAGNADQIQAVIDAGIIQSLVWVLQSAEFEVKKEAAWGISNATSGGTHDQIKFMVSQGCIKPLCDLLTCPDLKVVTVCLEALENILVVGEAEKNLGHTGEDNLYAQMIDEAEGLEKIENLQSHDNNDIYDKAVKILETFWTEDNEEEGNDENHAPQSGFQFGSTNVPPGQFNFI

With “HaRxL106ΔC–SV40NLS fusion (recombinant, for ITC)”, the Kd lay within 2220 to 3700 nM.
The substance “His6-HaRxL106 (effector domain, amino acids 46–285) (domain or fragment)” returned a Kd of 540 to 850 nM and a stoichiometry N of 1.
Substance His6–SAP11 (natural protein) gave a Kd of 4420 to 6800 nM.

Broadly, the Kd is the free concentration of one partner at which half of the binding sites on the other are occupied at equilibrium, for simple one-to-one binding. Broadly, the stoichiometry N is a count of units in the complex or per binding partner.
